{
  "source": "patent US20250154494A1",
  "about": "“Microfluidic Co-Encapsulation Device and System and Methods for Identifying T-Cell Receptor Ligands” (JANSSEN BIOTECH, INC., priority 2021, published 2025)",
  "molecules": {"B1": {"name": "αCD19-scFv (clone B43), VH-VL, tagged with six HA epitope tags at its C-terminus (scFv)", "scFv": "EVQLVQSGAEVKKPGSSVKVSCKASGYAFSSYWMNWVRQAPGQGLEWMGQIWPGDSDTNYAQKFQGRVTITADESTSTAYMELSSLRSEDTAVYYCARRETTTVGRYYYAMDYWGQGTTVTVSSGGGGSGGGGSGGGGSDIQLTQSPSFLSASVGDRVTITCKASQSVDYSGDSYLNWYQQKPGKAPKLLIYDASNLVSGVPSRFSGSGSGTEFTLTISSLQPEDFATYYCQQSTENPWTFGGGTKLEIKGAGSYPYDVPDYAGAGSYPYDVPDYAGGSYPYDVPDYAGGAGSYPYDVPDYAGAGSYPYDVPDYAGAGSYPYDVPDYAG", "notes": "also called αCD19-HA; B43-HA"}, "B2": {"name": "αCD19-scFv (clone B43), four-times V5-tagged (scFv)", "scFv": "EVQLVQSGAEVKKPGSSVKVSCKASGYAFSSYWMNWVRQAPGQGLEWMGQIWPGDSDTNYAQKFQGRVTITADESTSTAYMELSSLRSEDTAVYYCARRETTTVGRYYYAMDYWGQGTTVTVSSGGGGSGGGGSGGGGSDIQLTQSPSFLSASVGDRVTITCKASQSVDYSGDSYLNWYQQKPGKAPKLLIYDASNLVSGVPSRFSGSGSGTEFTLTISSLQPEDFATYYCQQSTENPWTFGGGTKLEIKGKPIPNPLLGLDSTGAGSGGKPIPNPLLGLDSTGAGSGGKPIPNPLLGLDSTGGAGSGGKPIPNPLLGLDSTGSGAGGSSL", "notes": "also called αCD19-scFv V5-tagged"}, "B3": {"name": "αCD19-scFv V5-tagged: αCD19 scFv (clone B43) with four-times V5 tag (protein)", "scFv": "B2 scFv"}, "B4": {"name": "NBV promoter: synthetic TCR responsive promoter, SEQ ID NO:50 (nucleic acid)", "DNA": "GAATTCAAGTACCGTGCAGGAGGAAAAACTGTTTCATACAGAAGGCGTGGGCTATGCAAATCGAAACGCTGGAAACACTGAGTAATCAGATCAAGTCATGTTTCCATTTGAATGCAAATGGATACAGAAGGCGTGGAGGAAAAACTGTTTCCTGTTCCAATAGACGCCCTTTTTGAATGCAAATGGCGAGCTCATGGGTTTCTCCACCAAGGTGACGAGTGGAAAATCTGACTCAGAATTATCCCTTGTTATGCAAATCGCCCAAAGAGGAAAATTTGTTTCATAGAACATACTGTCTCAAATAGACGCCTCCTCGAGCGTTTCCCGGGGTACC"}},
  "key": {"Jurkat cells": {"test_system": "Jurkat cells", "assay": "Droplet co-culture of B and T cells, CD69 surface expression by flow cytometry", "format": "cell-based", "settings": "8 mM Ca^2+ in T cell suspension, 2 mM EDTA in B cell suspension", "procedure": "One day prior to encapsulation, BOLETH cells were cultured in the presence of cognate or negative control peptides at a final concentration of 1 μM. Cells were collected the next day, centrifuged at 300 g for 5 min, then resuspended in B-cell medium at a final concentration of 1.4×10^7 cells/ml. These were further supplemented with same peptide and with or without EDTA. TCR-expressing Jurkat cells were centrifuged at 300 g and resuspended in B-cell medium at a concentration of 4×10^7 cells/ml. These were then further supplemented with respective concentrations of calcium. BOLETH, Jurkat, and detergent-containing fractions were connected to the microfluidic chip as described. Pressures were applied using an OB1 MK3+ and the droplet emulsion was collected into a 1.5 ml reaction tube containing oil.\nDroplets were incubated at 37° C. in a 5% CO2 humidified incubator. Following overnight incubation, droplet emulsions were disrupted by adding two volumes of Pico-Break 1 (SPHERE FLUIDICS). Tubes were quickly inverted several times and centrifuged for 15 s at 300 rpm to facilitate separation of the cell-containing fraction. […] Tubes were centrifuged for 5 min at 300 g and cell pellets were subsequently resuspended in 100 μl of FACS buffer and were analyzed via flow cytometry. […]"}, "Jurkat T cells": {"test_system": "Jurkat T cells", "assay": "Bulk plate co-culture of TCR-expressing Jurkat T cells with B cells presenting cognate peptide, CD69 surface expression", "format": "cell-based", "settings": "Ca^2+ in equimolar concentration to EDTA in the medium"}, "CD19 on BOLETH cells [1]": {"target": "T1, CD19 on BOLETH cells (UniProt P15391 20-556, limits assumed)", "T1 construct": "whole, on cells; also called B cell-specific transmembrane protein CD19", "T1 sequence (looked up)": "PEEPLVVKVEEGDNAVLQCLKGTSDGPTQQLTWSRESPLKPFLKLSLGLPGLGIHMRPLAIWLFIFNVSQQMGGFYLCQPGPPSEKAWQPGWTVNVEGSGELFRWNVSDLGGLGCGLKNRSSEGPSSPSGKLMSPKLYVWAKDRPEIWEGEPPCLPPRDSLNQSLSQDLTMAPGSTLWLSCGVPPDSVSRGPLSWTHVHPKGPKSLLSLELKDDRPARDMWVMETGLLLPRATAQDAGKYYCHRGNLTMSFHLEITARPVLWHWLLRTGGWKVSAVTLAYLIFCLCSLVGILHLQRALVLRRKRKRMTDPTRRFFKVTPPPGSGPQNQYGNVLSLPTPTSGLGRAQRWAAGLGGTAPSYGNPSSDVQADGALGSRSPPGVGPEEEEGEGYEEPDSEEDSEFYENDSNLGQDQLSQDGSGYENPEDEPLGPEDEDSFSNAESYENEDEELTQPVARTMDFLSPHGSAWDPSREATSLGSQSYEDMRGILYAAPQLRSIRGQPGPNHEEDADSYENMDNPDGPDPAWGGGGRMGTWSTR", "assay": "flow cytometry; BOLETH cells stained with supernatant of HEK cells transfected with tandem (T2A) constructs, anti-HA antibody"}, "CD19 on BOLETH cells [2]": {"target": "T1, CD19 on BOLETH cells", "assay": "flow cytometry; scFv secreted by Jurkat TT2 reporter cells in co-culture with BOLETH cells, 0.1 nM-10 µM cognate peptide"}, "BOLETH cells": {"test_system": "BOLETH cells", "assay": "Co-culture of Jurkat TT2 scFv reporter cells with BOLETH cells in presence of cognate peptide, flow cytometry", "format": "cell-based", "settings": "0.1 nM-10 μM cognate peptide; versus V5-tagged αCD20-scFv"}, "TCR signaling [3]": {"test_system": "TCR signaling", "assay": "Co-culture of Jurkat reporter cells carrying synthetic promoters with peptide-loaded B cells (GFP / HA reporter)", "format": "cell-based", "procedure": "(§1) Sleeping beauty transposon reporter constructs were transfected together with transposases into T cells, 5 to 1 ratio, using the Neon transfection system following the manufacturer's protocol. The voltages used for Jurkat cells were 1350V/[…]/3 pulse, and for SKW-3 cells 1500V, […] and 1 pulse were used as settings. 48-72 hours after transfection, the cells were selected using […] Blasticidin for Jurkat and […] Blasticidin for SKW-3 cells.\n(§2) Co-culture experiments were performed using round-bottom 96-well plates. P10-NBV Jurkat and SKW-3 reporter cells and B cells were seeded at a 1:1 ratio into each well. For peptide co-culture experiments, either cognate peptide or mismatched peptide is added to each well and incubated for 16 hours. For minigene-based co-culture experiments, minigene-transduced B cells harboring either the cognate of mismatch minigenes were used. Next day the cells are spun down and stained for Flow cytometry."}, "TCR signaling [4]": {"test_system": "TCR signaling", "assay": "Co-culture of SKW-3 cells expressing sleeping beauty transposon reporters with peptide-loaded B cells (GFP / HA reporter)", "format": "cell-based", "settings": "1 μM peptide", "procedure": "as §1, §2"}},
  "data": [
    {"molecule": "[Ca+2]", "note": "[Ca^2+]", "values": [
      {"measurement": "T cell activation measured by CD69 surface expression in droplets", "setting": "Jurkat cells", "result": "rescues Ca^2+ dependent T cell activation"},
      {"measurement": "T cell activation measured by surface expression of CD69", "setting": "Jurkat T cells", "result": "fully restores T cell activation"}
    ]},
    {"molecule": "B1", "values": [
      {"measurement": "binding result", "setting": "CD19 on BOLETH cells [1]", "result": "binds"}
    ]},
    {"molecule": "B2", "values": [
      {"measurement": "fold reduction in MFI compared to V5-tagged αCD20-scFv (VLVH)", "setting": "CD19 on BOLETH cells [2]", "result": "~5", "unit": "fold"}
    ]},
    {"molecule": "B3", "values": [
      {"measurement": "reduction in MFI", "setting": "BOLETH cells", "result": "about 5 fold"}
    ]},
    {"molecule": "B4", "values": [
      {"measurement": "GFP and HA reporter gene expression in sleeping beauty constructs", "setting": "TCR signaling [3]; sleeping beauty constructs", "result": "high GFP and HA reporter gene expression"},
      {"measurement": "GFP and HA median intensity compared to NFAT promoters", "setting": "TCR signaling [3]; sleeping beauty transposon reporters in Jurkat cells, 1 μM peptide", "result": "best signal"},
      {"measurement": "intensity of HA and GFP signals compared to 4×NFAT", "setting": "TCR signaling [3]; sleeping beauty transposon system, different concentrations of cognate peptide", "result": "higher intensity of both HA and GFP signals"},
      {"measurement": "HA and GFP fluorescence intensities with 2 copies of promoter instead of 1", "setting": "TCR signaling [4]", "result": "doubled"}
    ]}
  ]
}
